Measurements as given in US20200031947A1 (RINAT NEUROSCIENCE, published 2020).

T1: human GITR on cells (human, UniProt Q9Y5U5 26-162)
T1 sequence: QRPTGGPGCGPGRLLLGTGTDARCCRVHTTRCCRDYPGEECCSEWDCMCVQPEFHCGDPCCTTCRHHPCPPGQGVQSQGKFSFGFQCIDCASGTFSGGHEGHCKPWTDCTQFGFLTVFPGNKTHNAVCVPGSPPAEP

T2: human GITR (hGITR), soluble analyte (human, UniProt Q9Y5U5 26-162)
T2 sequence: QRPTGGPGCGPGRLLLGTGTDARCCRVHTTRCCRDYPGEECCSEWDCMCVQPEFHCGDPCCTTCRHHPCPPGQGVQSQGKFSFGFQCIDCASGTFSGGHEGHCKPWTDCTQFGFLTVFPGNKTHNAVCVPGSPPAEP

T3: mouse GITR (mGITR), soluble analyte (mouse, UniProt O35714 20-153, limits assumed)
T3 construct: Soluble analyte in SPR; construct not described
T3 sequence (looked up): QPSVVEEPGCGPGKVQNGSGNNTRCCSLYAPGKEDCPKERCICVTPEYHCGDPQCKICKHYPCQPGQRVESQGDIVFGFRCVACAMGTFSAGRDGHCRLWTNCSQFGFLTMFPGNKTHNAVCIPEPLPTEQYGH


What was measured:
human GITR on cells [1] = target: T1, human GITR on cells; assay: cell-based or functional assay
[2] = target: T2, human GITR (hGITR), soluble analyte; assay: SPR (Biacore T200), 37 C; antibody captured on anti-human Fc chip, GITR as analyte; 1:1 Langmuir fit
Experimental: (§1) The sensor chip preparation was performed at 25° C. with a running buffer of 10 mM HEPES, 150 mM NaCl, 0.05% (v/v) Tween-20, pH 7.4. An anti-human Fc sensor chip was made by activating all flow cells of a Biacore CM4 sensor chip with a 1:1 (v/v) mixture of 400 mM EDC and 100 mM NHS for 7 minutes, at a flow rate of 10 μL/min. An anti-human Fc reagent (Goat Anti-Human IgG Fc, SouthernBiotech Catalog #2081-01) was diluted to […] in 10 mM Sodium Acetate pH 4.5 and injected on all flow cells for 7 minutes at 20 μL/min. All flow cells were blocked with 100 mM ethylenediamine in 150 mM Borate buffer pH 8.5 for 7 minutes at 10 μL/min.
(§2) Antibodies were captured from undiluted supernatants onto downstream flow cells (flow cells 2, 3 and 4) at a flow rate of 10 μL/min for 2 minutes. Different antibodies were captured on each flow cell. Flow cell 1 was used as a reference surface. Following capture of antibodies, analyte (buffer, hGITR, or cyGITR) was injected at 30 μL/min on all flow cells for two minutes. After the analyte injection, dissociation was monitored for 10 minutes followed by regeneration of all flow cells with three 1-minute injections of 75 mM Phosphoric Acid. For each captured antibody, the following analyte injections were performed: buffer, 20 nM hGITR, 200 nM hGITR, 20 nM cyGITR and 200 nM cyGITR. Buffer cycles were collected for each captured antibody for double-referencing purposes (double-referencing as described in Myszka, J. Mol. Recognit. 12:279-284 (1999). The double-referenced sensorgrams were fit globally to a simple 1:1 Langmuir with mass transport binding model.

[3] = target: T4, cynomolgus GITR (cyGITR), soluble analyte (cynomolgus); assay: as above
T4 construct: Soluble analyte in SPR; construct not described; also called cGITR
Experimental: as §1, §2

[4] = target: T3, mouse GITR (mGITR), soluble analyte; assay: SPR (Biacore T200), 37 C; purified antibody captured on anti-mouse Ig chip, mGITR as analyte (300 nM top, 3-fold series); 1:1 Langmuir fit
Experimental: The sensor chip preparation was performed at 25° C. with a running buffer of 10 mM HEPES, 150 mM NaCl, 0.05% (v/v) Tween-20, pH 7.4. An anti-mouse Fc sensor chip was made by activating all flow cells of a Biacore CM4 sensor chip with a 1:1 (v/v) mixture of 400 mM EDC and 100 mM NHS for 7 minutes, at a flow rate of 10 μL/min. An anti-mouse immunoglobulin reagent (Rabbit anti-mouse immunoglobulin antibodies from Biacore Mouse Antibody Capture Kit, GE Lifesciences Catalog # BR-1008-38) was diluted to […] in 10 mM Sodium Acetate pH 5.0 and injected on all flow cells for 7 minutes at 20 μL/min. All flow cells were blocked with 100 mM ethylenediamine in 150 mM Borate buffer pH 8.5 for 7 minutes at 10 μL/min.
The experiments were performed at 37° C. using a running buffer of 10 mM HEPES, 150 mM NaCl, 0.05% (v/v) Tween-20, pH 7.4, 1 mg/mL BSA.
Purified antibodies were captured at […] onto downstream flow cells (flow cells 2, 3 and 4) at a flow rate of 10 μL/min for 2 minutes. Different antibodies were captured on each flow cell. Flow cell 1 was used as a reference surface. Following capture of antibodies, analyte (buffer, or mGITR) was injected at 30 μL/min on all flow cells for two minutes. After the analyte injection, dissociation was monitored for 10 minutes followed by regeneration of all flow cells with one 3-minute injection of 10 mM Glycine pH 1.7. A 5-membered dilution series of mGITR was analyzed using this method, where the top concentration was 300 nM and the dilution factor was 3-fold. The 33 nM dilution was run in duplicate. Buffer cycles were collected for each captured antibody for double-referencing purposes (double-referencing as described in Myszka, J. Mol. Recognit. 12:279-284 (1999). The double-referenced sensorgrams were fit globally to a simple 1:1 Langmuir with mass transport binding model.

human GITR on cells [5] = target: T1, human GITR on cells; assay: flow cytometry on in vitro expanded human Tregs; unconjugated antibody detected with A647 goat anti-human Fc gamma F(ab')2; MFI on antibody positive cells
Experimental: Cultured Tregs would be tracked throughout expansion to check purity. Cells were re-suspended in FACS buffer, PBS with 2% FBS for analysis using fluorophore conjugated CD markers. FACS antibodies against GITR and other CD lymphocyte markers were prepared in FACS buffer at the appropriate concentration and incubated for 30 minutes at RT. Treg purity staining utilizes intracellular targets and were processed with Foxp3 fix/perm kit (Affymetrix/eBiosciense, San Diego, Calif.). Stained cells were resuspended in fresh FACS buffer and analyzed on a FACS analyzer LSRII or Fortessa (BD Biosciences, San Jose, Calif.). To generate kinetic and binding data unconjugated antibody was titrated from 10-0.001 ug/mL (1:10 in serial dilutions, triplicate wells per concentration) and incubated at 4c for 60 minutes with 1*10e5 expanded day 12 Tregs per well. Unbound antibody was washed from cells and an A647 labeled Fc gamma (Fcγ) Fragment Specific goat-anti-human affiniPure F(ab′)₂ IgG was used to detect bound antibody (Jackson ImmunoResearch Laboratories Inc, West Grove, Pa.). Analysis of stained cells completed with FlowJo (Treestar). Geometric mean of APC was used to calculate EC50 by log transforming the molar concentration and generating a non-linear fit curve in GraphPad Prism.

human GITR on cells [6] = target: T1, human GITR on cells; assay: flow cytometry on human T cells activated 48 h with CD3/28 beads; unlabeled antibody detected with APC goat anti-mouse Fc gamma F(ab')2
Text: Primary human lymphocytes were isolated from concentrated whole blood provided by the Stanford Blood Bank by first diluting blood 1:4 in Phosphate Buffered Saline (PBS, without Ca2+ and Mg2+). Peripheral Blood Mononuclear Cells (PBMC) were isolated using a Ficoll gradient underlay (Ficoll-Paque PLUS, GE Healthcare Life Sciences, Pittsburgh, Pa.). The harvested buffy layer was washed twice with PBS and counted. Cells were resuspended at 50*10e6c/mL in PBS+2% Fetal Bovine Serum (FBS) and processed with CD3 negative enrichment kit (Stem Cell Tech Vancouver, BC) according to manufacturer's instructions. After enrichment, cells were counted and frozen in aliquots of 10-20*10e6 in 90% FBS 10% DMSO freeze media for future use. For activation, a vial of cells from a donor T cell was thawed and rested overnight in R10c (RPMI 1640+10% FBS+1×NEAA+1×Sodium Pyruvate+1×Pen-Strep) at 1*10e6 cells/mL in a T75 flask. Cells were counted and stimulated for 48 hours with Dynabeads Human CD3/28 T cells activating beads at a 1:1 bead to cell ratio (Thermo Fisher). After 48 hours the cells were removed from media and washed with 1×PBS. Cells were titrated into a 96 well plate where they were stained with unlabeled mouse anti-human GITR antibodies (100-0.001 ug/mL) in PBS and incubated for 30 minutes at 37° c. […]

Kd [2] [nM]	koff [2] [s⁻¹]	kon [2] [M⁻¹ s⁻¹]	t1/2 [2] [min]	Kd [3] [nM]	koff [3] [s⁻¹]	t1/2 [3] [min]	Kd [4] [nM]	koff [4] [s⁻¹]	kon [4] [M⁻¹ s⁻¹]	t1/2 [4] [min]	Binder	EC50 of macrophage-mediated cytotoxicity (ADCP) of a GITR+ T cell line (human GITR on cells [1]) [nM]	further results
5	0.0045	900000	2.6	6.4	0.0038	3					h3G7 R5 (antibody, V domains shown, Only variable domains are tied to this name) VH: QVQLVQSGAEVKKPGASVKVSCKASGYTFTGATMNWVRQAPGQGLEWMGLINPYTGGIRYNQKFKGRVTMTRDTSTSTVYMELSSLRSEDTAVYYCARIGGYYDSMDYWGQGTLVTVSS VL: DIQMTQSPSSLSASVGDRVTITCRASESVEPRGINFLNWYQQKPGKAPKLLIYAASQASKGVPSRFSGSGSGTDFTLTISSLQPEDFATYYCQQALELPWTFGGGTKVEIK	0.92	kon [3]: 600000 M⁻¹ s⁻¹
											h3G7 N9 (antibody, IgG1, V domains shown) VH: QVQLVQSGAEVKKPGASVKVSCKASGYTFTGYTVSWVRQAPGQGLEWMGLINPYTGGIRYNQKFKGRVTMTRDTSTSTVYMELSSLRSEDTAVYYCARIGGYYDSMDYWGQGTLVTVSS VL: DIQMTQSPSSLSASVGDRVTITCRASESVQPRGINFLNWYQQKPGKAPKLLIYAASNPSKGVPSRFSGSGSGTDFTLTISSLQPEDFATYYCQQALELPWTFGGGTKVEIK	0.692	
							21	0.0065	310000	1.8	anti-mGITR r21B6 mIgG2a (antibody, V domains shown, also called m21B6 IgG2a) VH: EAQLVESGGGLVQPGRSLKLSCEASGFTFTKYGMAWVRQAPTKGLEWVASIINSGGNTYYRDSVKGRFTISRDNAKSTLYLQMDSLRSEDTATYYCATDYYDGSYHSDVVDAWGQGVLVTVSS VL: EIVLTQSPTTMAASPGEKVTITCRASSSLNYMHWFQQKSGTSPKPWIYDTSELASGVPDRFSGSGSGTSYSLTISSMEAEDAATYYCLQKNGYPLTFGSGTKLEIK		
											h10H2 N14 (antibody, IgG1, V domains shown, also called R14; h10H2 R14) VH: QVQLVQSGAEVKKPGSSVKVSCKASGGTFSRYWIEWVRQAPGQGLEWMGEILPGSGVTFENEKFKGRVTITADESTSTAYMELSSLRSEDTAVYYCARKGRYYAMDYWGQGTSVTVSS VL: EIVLTQSPGTLSLSPGERATLSCRASQSIGTSIHWYQQKPGQAPRLLIYYASESVSGIPDRFSGSGSGTDFTLTISRLEPEDFAVYYCQQTYSWPATFGQGTKVEIK	2.01	EC50 (read off the curve) (human GITR on cells [5]): ~0.03 µg/mL
							2.2	0.00049	220000	24	anti-mGITR r18H12 mIgG2a (antibody, V domains shown) VH: EVQLVESDGVLVQPGKSLTLSCAASGFTFSDYYMAWVRQAPTKGLEWVATISYDDITTFYRDSVKGRFTISRDTAKSTLYLQMDSLRSEDTATYYCTRGLQWPYVMDAWGQGALVTVSS VL: DIVMTQSPSSLAVSAGETVTINCKSSQSLLYSGNQKSYLAWYQQKPGQSPKLLIYWASPRQSGVPDRFIGSGSGTDFTLTISSVQAEDMATYYCQQYYDAPPTFGGGTKLEIK		
2.2	0.00077	350000	15	> 100	0.0073	1.6					m10H2 (antibody, V domains shown, In ADCC it is called hIgG1; also called anti-human GITR antibody m10H2; A647 labeled m10H2) VH: QVQLQQSGAELMKPGASVKISCTATGYTISRYWIEWVKQRPGHGLEWIGEILPGSGVTNYNEKFKGKATFTADTSSNTAYMQLSSLTSEDSAVYSCARKGTYYAMDYWGQGTSVTVSS VL: DILLTQSPAILSVSPGERVSFSCRASQSIGTSIHWYQQRTNGSPRLLIKYASESVSGIPSRFSGSGSGTDFTLFINSVESEDIADYYCQQTYSWPATFGAGTKLELK		EC50 (read off the curve) (human GITR on cells [6]): ~0.07 µg/mL
